Patent EP3216458A1

Biological target: Neuropilin-1 (Nrp-1), zebrafish (zebrafish) (UniProt Q8QFX6)
Experiment: cell-based or functional assay

UniProt Q8QFX6, sequence (Q8QFX6 20-923 limits assumed): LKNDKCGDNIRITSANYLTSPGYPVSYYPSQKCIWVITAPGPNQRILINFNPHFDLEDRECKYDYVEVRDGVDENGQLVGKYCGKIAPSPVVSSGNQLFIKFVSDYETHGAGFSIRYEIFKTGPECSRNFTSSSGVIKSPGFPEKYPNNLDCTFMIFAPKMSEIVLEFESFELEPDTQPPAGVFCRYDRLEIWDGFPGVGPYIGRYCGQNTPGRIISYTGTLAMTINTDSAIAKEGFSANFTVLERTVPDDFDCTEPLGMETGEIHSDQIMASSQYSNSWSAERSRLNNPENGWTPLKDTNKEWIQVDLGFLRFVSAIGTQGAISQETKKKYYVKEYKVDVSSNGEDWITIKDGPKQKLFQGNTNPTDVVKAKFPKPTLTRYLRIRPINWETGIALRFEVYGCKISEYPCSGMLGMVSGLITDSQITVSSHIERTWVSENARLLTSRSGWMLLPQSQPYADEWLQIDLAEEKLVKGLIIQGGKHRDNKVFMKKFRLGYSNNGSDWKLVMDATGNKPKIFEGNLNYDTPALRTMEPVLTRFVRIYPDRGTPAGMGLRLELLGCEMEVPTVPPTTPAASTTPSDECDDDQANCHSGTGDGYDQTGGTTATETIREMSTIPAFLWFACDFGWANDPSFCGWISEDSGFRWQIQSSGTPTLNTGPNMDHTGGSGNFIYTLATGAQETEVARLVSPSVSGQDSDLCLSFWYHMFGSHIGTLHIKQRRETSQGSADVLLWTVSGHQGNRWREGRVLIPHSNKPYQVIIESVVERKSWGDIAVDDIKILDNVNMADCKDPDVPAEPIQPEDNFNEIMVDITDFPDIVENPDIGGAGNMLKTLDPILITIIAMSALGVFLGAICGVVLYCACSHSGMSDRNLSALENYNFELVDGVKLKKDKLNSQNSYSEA

## Vegfaa-165 R165E (zebrafish VEGF-A isoform 165 with arginine 165 changed to glutamic acid) (ligand)
  Rescue percentage (embryos with blood flow circulation and without pericardial edema after mRNA injection into vegfaa-/- zebrafish): 3%
